Measurements taken from publication PMC10397247.

Experiments:
Experiment in all cases: two-hybrid library CCNG1;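 further: natural log of median RNA to DNA barcode read ratio; higher means stronger binding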
4H3638-bN = molecular target: T1, 4H3638-bN
T1 chain: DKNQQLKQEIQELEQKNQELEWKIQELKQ

4H570-bN = molecular target: T2, 4H570-bN
T2 chain: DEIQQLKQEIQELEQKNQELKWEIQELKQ

4H3129-bN = molecular target: T3, 4H3129-bN
T3 chain: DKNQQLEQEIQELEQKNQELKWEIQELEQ

4H3974-bN = molecular target: T4, 4H3974-bN
T4 chain: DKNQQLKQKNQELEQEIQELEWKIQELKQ

4H584-bN = molecular target: T5, 4H584-bN
T5 chain: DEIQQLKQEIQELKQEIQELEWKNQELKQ

4H906-bN = molecular target: T6, 4H906-bN
T6 chain: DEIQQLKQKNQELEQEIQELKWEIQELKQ

4H3817-bN = molecular target: T7, 4H3817-bN
T7 chain: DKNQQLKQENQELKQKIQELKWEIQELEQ

4H850-bN = molecular target: T8, 4H850-bN
T8 chain: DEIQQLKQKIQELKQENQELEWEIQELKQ

4H3631-bN = molecular target: T9, 4H3631-bN
T9 chain: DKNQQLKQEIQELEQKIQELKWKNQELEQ

4H619-bN = molecular target: T10, 4H619-bN
T10 chain: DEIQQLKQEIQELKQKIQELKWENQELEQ

4H3172-bN = molecular target: T11, 4H3172-bN
T11 chain: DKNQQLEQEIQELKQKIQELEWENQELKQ

4H3414-bN = molecular target: T12, 4H3414-bN
T12 chain: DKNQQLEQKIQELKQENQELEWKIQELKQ

4H883-bA = molecular target: T13, 4H883-bA
T13 chain: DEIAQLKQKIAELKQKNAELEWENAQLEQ

4H2697-bA = molecular target: T14, 4H2697-bA
T14 chain: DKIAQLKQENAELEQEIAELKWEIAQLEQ

4H4001-bA = molecular target: T15, 4H4001-bA
T15 chain: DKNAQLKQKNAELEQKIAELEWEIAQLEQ

4H72-bA = molecular target: T16, 4H72-bA
T16 chain: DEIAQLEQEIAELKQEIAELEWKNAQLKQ

4H370-bA = molecular target: T17, 4H370-bA
T17 chain: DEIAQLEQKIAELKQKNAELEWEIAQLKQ

4H967-bA = molecular target: T18, 4H967-bA
T18 chain: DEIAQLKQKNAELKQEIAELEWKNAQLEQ

4H331-bA = molecular target: T19, 4H331-bA
T19 chain: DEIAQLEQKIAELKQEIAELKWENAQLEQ

4H607-bA = molecular target: T20, 4H607-bA
T20 chain: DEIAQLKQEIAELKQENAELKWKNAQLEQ

4H568-bA = molecular target: T21, 4H568-bA
T21 chain: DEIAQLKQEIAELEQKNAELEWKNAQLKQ

4H3189-bA = molecular target: T22, 4H3189-bA
T22 chain: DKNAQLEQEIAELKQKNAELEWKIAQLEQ

4H3041-bH = molecular target: T23, 4H3041-bH
T23 chain: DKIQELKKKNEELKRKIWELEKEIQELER

4H953-bA = molecular target: T24, 4H953-bA
T24 chain: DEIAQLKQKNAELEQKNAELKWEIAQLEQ

4H3606-bA = molecular target: T25, 4H3606-bA
T25 chain: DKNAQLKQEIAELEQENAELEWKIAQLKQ

4H797-bA = molecular target: T26, 4H797-bA
T26 chain: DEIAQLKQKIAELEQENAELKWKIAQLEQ

4H918-bA = molecular target: T27, 4H918-bA
T27 chain: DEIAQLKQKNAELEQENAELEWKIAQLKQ

4H3843-bA = molecular target: T28, 4H3843-bA
T28 chain: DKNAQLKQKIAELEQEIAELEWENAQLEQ

4H687-bA = molecular target: T29, 4H687-bA
T29 chain: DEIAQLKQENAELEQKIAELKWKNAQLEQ

4H462-bA = molecular target: T30, 4H462-bA
T30 chain: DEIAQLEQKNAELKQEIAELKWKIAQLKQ

4H3782-bA = molecular target: T31, 4H3782-bA
T31 chain: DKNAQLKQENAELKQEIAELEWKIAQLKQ

O4-bH = molecular target: T32, O4-bH
T32 chain: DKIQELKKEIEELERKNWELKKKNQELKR

O9-bH = molecular target: T33, O9-bH
T33 chain: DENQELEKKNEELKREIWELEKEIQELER

O8-bH = molecular target: T34, O8-bH
T34 chain: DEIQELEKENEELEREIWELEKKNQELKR

O3-bH = molecular target: T35, O3-bH
T35 chain: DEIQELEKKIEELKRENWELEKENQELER

O7-bH = molecular target: T36, O7-bH
T36 chain: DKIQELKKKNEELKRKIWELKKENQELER

O5-bH = molecular target: T37, O5-bH
T37 chain: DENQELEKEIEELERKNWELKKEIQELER

O6-bH = molecular target: T38, O6-bH
T38 chain: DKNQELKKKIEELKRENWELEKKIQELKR

DKNQQLEQEIQELEQKNQELKWEIQELEQ [4H3129-bN]
interaction score (4H3638-bN): -1.26
interaction score (4H570-bN): -0.835
interaction score (4H3129-bN): -0.749
interaction score (4H3974-bN): -0.744
interaction score (4H584-bN): -1.09
interaction score (4H906-bN): -1.2
interaction score (4H3817-bN): -1.45
interaction score (4H850-bN): -1.41
interaction score (4H3631-bN): -1.47
interaction score (4H619-bN): -0.774
interaction score (4H3172-bN): -0.806
interaction score (4H3414-bN): 1.09

DKIAQLKQENAELEQEIAELKWEIAQLEQ [4H2697-bA]
interaction score (4H883-bA): -1.53
interaction score (4H2697-bA): -0.377
interaction score (4H4001-bA): -0.951
interaction score (4H72-bA): -1.03
interaction score (4H370-bA): -1.13
interaction score (4H967-bA): -0.359
interaction score (4H331-bA): -1.52
interaction score (4H607-bA): -1.17
interaction score (4H568-bA): -1.82
interaction score (4H3189-bA): -1.34
interaction score (4H3041-bH): 1.02
interaction score (4H953-bA): -1.44
interaction score (4H3606-bA): -1.7
interaction score (4H797-bA): -0.734
interaction score (4H918-bA): -0.926
interaction score (4H3843-bA): -0.367
interaction score (4H687-bA): -1.08
interaction score (4H462-bA): 2.04
interaction score (4H3782-bA): 0.993

DEIQELEKKIEELKRENWELEKENQELER [O3-bH]
interaction score (O4-bH): 2.01
interaction score (O9-bH): -0.716
interaction score (O8-bH): 0.212
interaction score (O3-bH): -0.176
interaction score (O7-bH): -0.247
interaction score (O5-bH): -0.92
interaction score (O6-bH): -0.104
